In article PMC4176175, “Requirements for 5′dRP/AP lyase activity in Ku”:

What was measured:
Experiment in all cases: EMSA; 1 nM Ku, 1 nM DNA, 15 min; EMSA: 1 nM Ku with 1 nM radiolabeled 30 bp DNA, 15 min, no streptavidin/UDG; buffer, salt, pH and temperature not given in the material
Conditions in all cases: protein: recombinant;recombinant, tags: C-terminal His6;, copies: 1;1, label: 3' 32P-cordycepin on strand 1, 5' overhang 3 nt (GUG) on strand 1, 5' overhang 1 nt (T) on strand 2, paired by the added 3' cordycepin
[1] = target: T1, Xenopus Ku70 WT;Xenopus Ku80 WT (Xenopus laevis;Xenopus laevis, UniProt Q9W626;Q6DDS9 1-611;1-726, |)
T1 sequence 1: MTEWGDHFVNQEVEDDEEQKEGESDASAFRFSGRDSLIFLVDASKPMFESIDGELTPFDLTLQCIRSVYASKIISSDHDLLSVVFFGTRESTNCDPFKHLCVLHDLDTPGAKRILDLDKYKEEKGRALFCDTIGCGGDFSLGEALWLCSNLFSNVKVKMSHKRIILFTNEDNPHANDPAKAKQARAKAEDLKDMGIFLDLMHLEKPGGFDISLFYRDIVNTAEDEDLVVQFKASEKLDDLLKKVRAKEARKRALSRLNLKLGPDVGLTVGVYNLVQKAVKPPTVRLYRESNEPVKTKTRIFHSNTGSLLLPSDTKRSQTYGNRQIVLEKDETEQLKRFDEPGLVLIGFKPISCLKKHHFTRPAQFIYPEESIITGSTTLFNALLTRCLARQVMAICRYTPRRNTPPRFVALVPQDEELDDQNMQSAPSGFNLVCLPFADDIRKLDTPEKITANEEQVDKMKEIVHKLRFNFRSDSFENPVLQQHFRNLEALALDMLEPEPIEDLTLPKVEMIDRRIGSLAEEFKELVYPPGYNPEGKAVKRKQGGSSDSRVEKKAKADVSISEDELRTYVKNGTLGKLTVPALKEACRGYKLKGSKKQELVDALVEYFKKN
T1 sequence 2: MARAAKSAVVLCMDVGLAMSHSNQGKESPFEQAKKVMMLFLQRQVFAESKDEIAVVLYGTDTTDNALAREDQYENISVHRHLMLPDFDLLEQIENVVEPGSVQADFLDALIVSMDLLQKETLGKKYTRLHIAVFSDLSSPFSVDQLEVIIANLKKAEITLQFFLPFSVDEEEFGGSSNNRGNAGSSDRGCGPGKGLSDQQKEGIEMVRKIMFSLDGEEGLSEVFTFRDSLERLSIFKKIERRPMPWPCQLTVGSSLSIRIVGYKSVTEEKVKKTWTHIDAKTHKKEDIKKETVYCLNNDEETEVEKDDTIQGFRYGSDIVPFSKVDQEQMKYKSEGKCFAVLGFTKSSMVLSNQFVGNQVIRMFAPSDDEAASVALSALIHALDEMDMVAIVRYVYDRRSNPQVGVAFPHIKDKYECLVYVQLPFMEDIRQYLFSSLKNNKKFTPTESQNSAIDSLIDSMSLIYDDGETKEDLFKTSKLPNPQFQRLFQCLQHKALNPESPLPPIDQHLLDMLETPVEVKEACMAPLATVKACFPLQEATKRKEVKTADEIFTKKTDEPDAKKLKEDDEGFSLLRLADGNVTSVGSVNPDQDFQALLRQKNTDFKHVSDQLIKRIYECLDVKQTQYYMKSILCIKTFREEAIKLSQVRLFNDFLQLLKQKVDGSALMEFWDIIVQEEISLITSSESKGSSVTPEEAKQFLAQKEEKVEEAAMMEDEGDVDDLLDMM

[2] = target: T2, yeast Ku70 2A;yeast Ku80 WT (Saccharomyces cerevisiae;Saccharomyces …, UniProt P32807;Q04437 1-602;1-629, K25A;K161A|)
T2 sequence 1: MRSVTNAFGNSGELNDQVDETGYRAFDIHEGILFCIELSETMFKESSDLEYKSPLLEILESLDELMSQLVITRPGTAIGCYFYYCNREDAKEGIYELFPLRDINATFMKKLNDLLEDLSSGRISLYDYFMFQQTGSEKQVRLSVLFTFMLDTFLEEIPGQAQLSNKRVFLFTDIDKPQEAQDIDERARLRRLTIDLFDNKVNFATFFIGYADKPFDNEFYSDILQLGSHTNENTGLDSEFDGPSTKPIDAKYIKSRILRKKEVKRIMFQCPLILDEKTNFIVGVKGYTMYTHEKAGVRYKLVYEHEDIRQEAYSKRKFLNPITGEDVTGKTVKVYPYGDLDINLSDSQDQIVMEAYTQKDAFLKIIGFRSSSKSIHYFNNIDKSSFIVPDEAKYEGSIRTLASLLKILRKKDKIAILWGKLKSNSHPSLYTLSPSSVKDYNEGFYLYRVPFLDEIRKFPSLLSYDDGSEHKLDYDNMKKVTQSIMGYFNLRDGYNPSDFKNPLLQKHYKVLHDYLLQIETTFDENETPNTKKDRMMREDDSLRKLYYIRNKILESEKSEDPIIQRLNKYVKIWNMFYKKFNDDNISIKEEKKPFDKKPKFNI
T2 sequence 2: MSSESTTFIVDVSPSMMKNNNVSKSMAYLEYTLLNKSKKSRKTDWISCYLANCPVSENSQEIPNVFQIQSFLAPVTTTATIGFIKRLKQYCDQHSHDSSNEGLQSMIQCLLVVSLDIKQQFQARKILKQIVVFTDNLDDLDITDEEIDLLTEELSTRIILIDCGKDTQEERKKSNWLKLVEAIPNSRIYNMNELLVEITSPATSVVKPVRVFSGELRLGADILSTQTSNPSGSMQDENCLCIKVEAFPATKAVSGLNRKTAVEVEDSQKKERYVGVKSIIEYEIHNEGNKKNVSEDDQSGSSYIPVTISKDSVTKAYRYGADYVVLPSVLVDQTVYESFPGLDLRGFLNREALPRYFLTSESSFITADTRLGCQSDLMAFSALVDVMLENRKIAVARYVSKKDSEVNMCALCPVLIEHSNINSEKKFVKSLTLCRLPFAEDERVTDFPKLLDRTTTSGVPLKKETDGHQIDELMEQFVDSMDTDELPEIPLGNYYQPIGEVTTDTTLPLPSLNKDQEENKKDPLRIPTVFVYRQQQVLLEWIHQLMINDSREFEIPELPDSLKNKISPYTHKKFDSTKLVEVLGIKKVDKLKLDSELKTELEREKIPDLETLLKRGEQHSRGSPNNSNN

[3] = target: T3, yeast Ku70 WT;yeast Ku80 WT (Saccharomyces cerevisiae;Saccharomyces …, UniProt P32807;Q04437 1-602;1-629, |)
T3 sequence 1: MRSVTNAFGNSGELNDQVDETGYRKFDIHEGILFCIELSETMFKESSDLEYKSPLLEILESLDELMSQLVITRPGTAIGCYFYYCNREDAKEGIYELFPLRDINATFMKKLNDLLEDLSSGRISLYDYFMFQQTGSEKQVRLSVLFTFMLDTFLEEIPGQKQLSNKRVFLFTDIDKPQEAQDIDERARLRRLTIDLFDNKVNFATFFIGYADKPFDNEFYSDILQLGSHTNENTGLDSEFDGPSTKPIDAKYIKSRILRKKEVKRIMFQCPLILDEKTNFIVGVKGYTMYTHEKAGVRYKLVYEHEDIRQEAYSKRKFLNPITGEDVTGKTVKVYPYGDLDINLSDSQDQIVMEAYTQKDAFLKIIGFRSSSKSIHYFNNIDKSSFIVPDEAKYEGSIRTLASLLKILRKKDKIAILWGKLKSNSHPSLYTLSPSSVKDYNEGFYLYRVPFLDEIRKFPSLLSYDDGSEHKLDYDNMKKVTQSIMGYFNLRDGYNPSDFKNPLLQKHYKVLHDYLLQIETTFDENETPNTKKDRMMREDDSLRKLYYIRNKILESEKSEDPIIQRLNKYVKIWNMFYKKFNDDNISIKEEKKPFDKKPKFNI
T3 sequence 2: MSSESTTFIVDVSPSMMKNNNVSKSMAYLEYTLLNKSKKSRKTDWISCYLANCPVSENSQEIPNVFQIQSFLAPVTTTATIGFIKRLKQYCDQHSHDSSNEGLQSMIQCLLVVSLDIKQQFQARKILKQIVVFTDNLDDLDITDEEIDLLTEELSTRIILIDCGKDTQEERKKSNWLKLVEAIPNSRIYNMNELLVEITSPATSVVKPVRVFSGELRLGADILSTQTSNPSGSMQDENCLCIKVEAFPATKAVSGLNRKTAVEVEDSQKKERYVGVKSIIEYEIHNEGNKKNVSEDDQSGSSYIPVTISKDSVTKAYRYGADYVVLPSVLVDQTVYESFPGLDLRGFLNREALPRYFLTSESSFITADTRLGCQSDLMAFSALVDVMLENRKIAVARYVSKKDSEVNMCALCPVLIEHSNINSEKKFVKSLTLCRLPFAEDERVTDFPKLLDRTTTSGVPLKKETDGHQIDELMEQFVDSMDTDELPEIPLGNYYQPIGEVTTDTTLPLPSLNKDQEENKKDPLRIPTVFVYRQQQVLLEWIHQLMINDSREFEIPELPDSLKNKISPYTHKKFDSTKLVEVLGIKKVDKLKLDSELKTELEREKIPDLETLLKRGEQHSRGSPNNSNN

Measured: binding result

B1: 30 bp EMSA substrate (dsDNA)
DNA 1: GUGGAAATCAAACGTAAGTAGAATCCAAAGTCT
DNA 2: TAGACTTTGGATTCTACTTACGTTTGATTTC
modifications: deoxyuridine at position 2 of strand 1 (no UDG treatment for EMSA); 5' phosphate on strand 1; 5' biotin-TEG on strand 2
binds: all assays above
